Test results: patent US20220112284A1 (Innovent, published 2022)
One block for each binder: values may come before it.

Tests used:
[1] = molecular target: T1, human PD-L1 on CHOS cells overexpressing PD-L1 (CHOS-PD-L1) (human, UniProt Q9NZQ7 19-290); test: FACS on CHOS-PD-L1 cells, PE anti-human Fc detection
T1 construct: whole, on cells; also called CHO-PD-L1; PD-L1 on the cell surface
Protocol: (§1) 2) Detection: The cell suspension was centrifuged at 400 g on a centrifuge for 5 min to remove the cell culture medium. The serial dilutions of the bispecific antibody IGN-LP disclosed herein and anti-humanized Nb-Fc and anti-LAG-3 antibody ADI31853 as controls were added to the U-shaped plate at 100 μL each, and then the cells were resuspended and put onto the ice to stand for 30 min. The cell suspension was centrifuged at 400 g for 5 min to remove the supernatant, and the cells were washed with PBS to remove the unbound antibodies. The resulting cell suspension was centrifuged at 400 g for 5 min to remove PBS. 100 μL of the solution of PE-conjugated anti-human Fc antibody (Jackson Immuno Research) diluted at a ratio of 1:200 was added to each well, and the cells were incubated in the dark on the ice for 30 min. Then the cell suspension was centrifuged at 400 g for 5 min to remove the supernatant. The cells were washed with PBS once to remove the unbound PE-conjugated anti-human Fc antibody. Then the cells were resuspended with 100 μL of PBS, and the binding of the antibody to cells was assayed by FACS.

human PD-L1-his [2] = molecular target: T2, human PD-L1-his (human, UniProt Q9NZQ7 19-238); test: ForteBio Octet BLI; antibody on AHQ tip, human PD-L1-His 100 nM in solution, monovalent
T2 construct: Bought reagent; also called PD-L1 protein; not shown: His tag
T2 sequence (Q9NZQ7 19-238 limits assumed): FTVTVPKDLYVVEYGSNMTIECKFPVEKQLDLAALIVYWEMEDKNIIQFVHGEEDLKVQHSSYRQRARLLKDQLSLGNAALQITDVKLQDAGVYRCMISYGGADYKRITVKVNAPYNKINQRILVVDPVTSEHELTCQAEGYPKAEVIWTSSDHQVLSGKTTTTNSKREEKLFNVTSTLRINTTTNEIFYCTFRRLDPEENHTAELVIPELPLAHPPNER
Protocol: (§2) The equilibrium dissociation constant (KD) for the binding of the prepared exemplary anti-LAG-3/PD-L1 bispecific antibody IGN-LP disclosed herein to LAG-3 and PD-L1 was determined by a kinetic binding assay using the Octet system manufactured by ForteBio. A ForteBio affinity assay was performed according to the method reported in the literature (Estep, P, et al., High throughput solution Based measurement of antibody-antigen affinity and epitope binning MAbs, 2013, 5(2): p. 270-278). Briefly:
(§3) The anti-human IgG Fc biosensor AHQ was immersed in each well containing the antibody solution at room temperature for 600 s to load the samples. The sensor was then washed in SD buffer until it returned to the baseline, and then immersed in a well containing 100 μL of the antigen solution to monitor the binding of the antibody to the antigen. The sensor was then transferred to a well containing 100 uL of the SD buffer to monitor the antibody dissociation (the operation procedures were set as: Baseline, Loading ˜1 nm, Baseline, Association and Dissociation, each running for a time depending on the binding and dissociation rates of the samples). The rotation speed was 400 rpm and the temperature was 30° C. […]

human PD-L1-his [3] = molecular target: T2, human PD-L1-his; test: ForteBio Octet BLI; antibody on AHQ tip, human PD-L1-His 100 nM in solution
Protocol: as §2, §3

[4] = molecular target: T3, human LAG-3 on 293 cells overexpressing human LAG-3 (293-LAG-3) (human, UniProt P18627 23-525); test: FACS on 293-LAG-3 cells, PE anti-human Fc detection
T3 construct: whole, on cells; also called LAG-3 on the cell surface
T3 sequence (looked up): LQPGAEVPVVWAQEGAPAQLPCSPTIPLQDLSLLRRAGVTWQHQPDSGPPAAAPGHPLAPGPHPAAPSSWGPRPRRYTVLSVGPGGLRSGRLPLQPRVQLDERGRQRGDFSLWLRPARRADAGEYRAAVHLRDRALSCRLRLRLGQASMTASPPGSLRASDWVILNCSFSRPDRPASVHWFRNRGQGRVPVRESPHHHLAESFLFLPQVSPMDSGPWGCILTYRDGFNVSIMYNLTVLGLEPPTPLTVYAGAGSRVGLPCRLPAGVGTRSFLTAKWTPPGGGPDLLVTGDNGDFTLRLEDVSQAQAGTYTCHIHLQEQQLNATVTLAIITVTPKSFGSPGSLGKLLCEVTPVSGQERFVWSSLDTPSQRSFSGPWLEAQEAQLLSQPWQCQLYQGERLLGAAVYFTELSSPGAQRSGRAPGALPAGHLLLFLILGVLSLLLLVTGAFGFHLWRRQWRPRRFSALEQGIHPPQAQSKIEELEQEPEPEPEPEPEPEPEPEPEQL
Protocol: as §1

human LAG-3-his [5] = molecular target: T4, human LAG-3-his (human, UniProt P18627 23-450); test: ForteBio Octet BLI; antibody on AHQ tip, human LAG-3-His 100 nM in solution
T4 construct: Bought reagent; also called LAG-3 protein; not shown: His tag
T4 sequence (looked up): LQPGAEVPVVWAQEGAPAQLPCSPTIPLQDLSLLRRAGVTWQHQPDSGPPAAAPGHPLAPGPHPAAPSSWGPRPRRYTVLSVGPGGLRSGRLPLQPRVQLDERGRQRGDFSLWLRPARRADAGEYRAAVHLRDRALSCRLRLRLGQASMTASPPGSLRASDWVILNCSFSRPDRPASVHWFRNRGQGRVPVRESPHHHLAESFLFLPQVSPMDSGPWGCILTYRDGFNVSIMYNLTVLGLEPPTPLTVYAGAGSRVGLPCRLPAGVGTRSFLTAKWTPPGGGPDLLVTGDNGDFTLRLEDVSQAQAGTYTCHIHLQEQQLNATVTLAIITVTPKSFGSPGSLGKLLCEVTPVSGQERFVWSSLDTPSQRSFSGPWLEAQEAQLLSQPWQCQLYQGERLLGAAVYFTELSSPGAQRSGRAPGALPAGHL
Protocol: as §2, §3

human LAG-3-his [6] = molecular target: T4, human LAG-3-his; test: ForteBio Octet BLI; antibody on AHQ tip, human LAG-3-His 100 nM in solution, monovalent
Protocol: as §2, §3

T1 sequence (Q9NZQ7 19-290): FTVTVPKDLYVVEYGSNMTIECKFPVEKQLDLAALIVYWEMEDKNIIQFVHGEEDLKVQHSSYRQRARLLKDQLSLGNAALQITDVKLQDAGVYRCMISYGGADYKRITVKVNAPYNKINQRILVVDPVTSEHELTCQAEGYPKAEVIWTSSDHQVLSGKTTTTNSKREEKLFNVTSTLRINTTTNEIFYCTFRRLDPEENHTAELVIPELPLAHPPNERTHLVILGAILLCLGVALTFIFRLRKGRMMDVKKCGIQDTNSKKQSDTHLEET

EC50 [1]: 1.2 nM | Kd (human PD-L1-his [2]): 11.5 nM | koff (human PD-L1-his [3]): 0.00356 s⁻¹ | kon (human PD-L1-his [3]): 310000 M⁻¹ s⁻¹
B1: anti-PD-L1 humanized Nb-Fc antibody (Fc fusion)
chain: QVQLQESGGGLVQPGGSLRLSCAASAYTISRNSMGWFRQAPGKGLEGVAAIESDGSTSYSDSVKGRFTISLDNSKNTLYLEMNSLRAEDTAVYYCAAPKVGLGPRTALGHLAFMTLPALNYWGQGTLVTVSS
notes: The VHH is inferred from the words 'parent antibody' / 'parental anti-PD-L1 antibody'; also called anti-humanized Nb-Fc; parental anti-PD-L1 antibody; not shown: the antibody was obtained according to ZL201710657665.3

EC50 [4]: 0.504 nM | koff (human LAG-3-his [5]): 0.0002 s⁻¹ | kon (human LAG-3-his [5]): 128000 M⁻¹ s⁻¹ | Kd (human LAG-3-his [6]): 1.56 nM
B2: anti-LAG-3 antibody ADI-31853 (antibody, human IgG1, kappa, L234A L235A, V domains shown)
VH: QLQLQESGPGLVKPSETLSLTCTVSGGSIYSESYYWGWIRQPPGKGLEWIGSIVYSGYTYYNPSLKSRVTISVDTSKNQFSLKLSSVTAADTAVYYCARVRTWDAAFDIWGQGTMVTVSS
VL: DIQMTQSPSSLSASVGDRVTITCQASQDISNYLNWYQQKPGKAPKLLIYDASNLETGVPSRFSGSGSGTDFTFTISSLQPEDIATYYCQQVLELPPWTFGGGTKVEIKR
notes: also called parental anti-LAG-3 antibody
